Test results taken from paper PMC4944999 (PLoS ONE, 2016).

Biological target: PeB^GF-Lys, double substituted variant ([change], [change]) of PeB-Lys (mouse)
Test: SPR

hemagglutinin (HA) of influenza A/California/7/2009 H1N1, in the split vaccine Pandemrix (natural protein)
fold amount of hemagglutinin bound compared to PeB: 20 fold
